These results are taken from US20250243271A1 (ALCEA THERAPEUTICS, published 2025).

The experiment has as its target T1, Recombinant human Notch4 (human, UniProt Q99466 24-1447, limits assumed).
T1 construct: also called Notch4 analyte; Notch4 (antigen)
T1 sequence: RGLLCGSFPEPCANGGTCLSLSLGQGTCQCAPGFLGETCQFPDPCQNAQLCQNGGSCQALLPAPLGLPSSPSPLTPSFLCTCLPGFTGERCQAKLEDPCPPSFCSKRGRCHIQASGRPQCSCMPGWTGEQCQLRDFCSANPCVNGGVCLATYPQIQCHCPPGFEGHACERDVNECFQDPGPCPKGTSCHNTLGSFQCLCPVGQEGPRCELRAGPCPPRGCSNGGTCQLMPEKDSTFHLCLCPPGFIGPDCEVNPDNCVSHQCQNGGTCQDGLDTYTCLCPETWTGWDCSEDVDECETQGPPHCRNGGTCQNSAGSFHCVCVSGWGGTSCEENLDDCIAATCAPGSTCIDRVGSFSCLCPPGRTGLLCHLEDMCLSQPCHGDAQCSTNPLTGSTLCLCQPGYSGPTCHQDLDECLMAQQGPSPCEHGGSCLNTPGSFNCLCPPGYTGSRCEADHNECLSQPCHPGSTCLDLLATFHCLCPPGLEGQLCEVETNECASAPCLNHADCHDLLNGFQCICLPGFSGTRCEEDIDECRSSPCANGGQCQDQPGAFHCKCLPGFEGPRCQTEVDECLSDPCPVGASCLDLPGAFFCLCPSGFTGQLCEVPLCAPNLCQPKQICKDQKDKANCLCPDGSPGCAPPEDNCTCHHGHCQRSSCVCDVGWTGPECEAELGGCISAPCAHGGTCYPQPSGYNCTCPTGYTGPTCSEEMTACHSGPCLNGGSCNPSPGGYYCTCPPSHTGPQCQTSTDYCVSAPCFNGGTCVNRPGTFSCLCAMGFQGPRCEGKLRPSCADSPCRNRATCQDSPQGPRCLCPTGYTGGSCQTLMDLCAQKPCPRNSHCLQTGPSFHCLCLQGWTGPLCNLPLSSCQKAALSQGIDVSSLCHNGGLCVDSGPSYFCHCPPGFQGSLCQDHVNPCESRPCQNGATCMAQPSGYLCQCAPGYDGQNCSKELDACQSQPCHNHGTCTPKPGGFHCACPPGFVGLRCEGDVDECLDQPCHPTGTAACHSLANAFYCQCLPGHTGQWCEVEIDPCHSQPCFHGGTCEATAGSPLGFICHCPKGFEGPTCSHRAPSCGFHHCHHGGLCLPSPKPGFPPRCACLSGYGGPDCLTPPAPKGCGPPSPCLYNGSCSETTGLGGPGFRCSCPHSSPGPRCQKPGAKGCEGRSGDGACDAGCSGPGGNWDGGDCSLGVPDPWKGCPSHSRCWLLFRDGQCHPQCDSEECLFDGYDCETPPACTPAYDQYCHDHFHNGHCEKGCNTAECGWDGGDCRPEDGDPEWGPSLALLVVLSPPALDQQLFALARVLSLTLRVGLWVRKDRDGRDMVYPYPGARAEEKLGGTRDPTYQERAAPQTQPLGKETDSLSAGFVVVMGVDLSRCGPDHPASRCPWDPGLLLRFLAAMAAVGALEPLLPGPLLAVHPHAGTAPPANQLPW
The experiment is described as follows: SPR, antibody captured by anti-human IgG Fc on HC30M chip, Notch4 as analyte. The protocol:
Binding kinetics measurements. Following expression and purification, clones were characterized using surface plasmon resonance (SPR) to determine binding kinetics and epitope binding activity. HC30M chips (polycarboxylate hydrogel surfaces having medium charge density and 30 nm coating thickness) were coated with anti-human Fc antibodies (unlabeled goat anti-human IgG Fc from Southern Biotech) to capture the candidate antibodies. Candidate antibodies were diluted to 10 μg/mL in HEPES-buffered saline Tris-EDTA (HBSTE)) and exposed to the surfaces for 15 minutes. After stabilizing baseline using HBSTE, Notch4 analytes were injected sequentially from a lowest concentration of 0.41 nM to a highest concentration of 300 nM. (Notch4 was diluted in HBSTE+0.5 mg/mL bovine serum albumin (BSA) to obtain a series of 3-fold dilutions.) To assess specificity, experiments were also run using Notch2 as an analyte in a single injection at 100 nM in HBSTE+0.5 mg/mL.

By Kd is commonly meant the equilibrium constant for the complex coming apart.

B1: iggrefmat 6-28 (antibody, V domains shown)
VH: EVQLVESGGGLVQPGRSLRLSCAASGFSFSDYHMHWVRQAPGKGLEWVGAISGSAYTTDYADSVEGRFTISRDNAKNSLYLQMNSLRAEDTAVYYCARDDYNKDGFDPWGQGTLVTVSS
VL: DIQMTQSPSSLSASVGDRVTITCRASQSIYSYLAWYQQKPGKAPKLLIYDASRLQSGVPSRFSGSGSGTDFTLTISSLQPEDVATYYCQQGYRSPITFGGGTKVEIK
notes: Tested as an antibody captured by anti-human IgG Fc; also called E03-Lib8H1N4
On to B1, for which the Kd was 3.4 nM.

B2: iggrefmat 1-34 (antibody, V domains shown)
VH: QVQLVQSGAEVKKPGASVKVSCKVSGYTLTKSSIHWVRQAPGKGLEWMGGINPSAGTRIYAQKFQGRVTMTEDTSTDTAYMELSSLKSEDTAVYYCVRGSNPNVWGKGTTVTVSS
VL: DIQMTQSPSSVSASVGDRVTITCRASQTIGNYLAWYQQKPGKAPKLLIYKASTLASGVPSRFSGSGSGTDFTLTISSLQPEDFANYYCQQYNFYPRTFGGGTKVEIK
notes: Tested as an antibody captured by anti-human IgG Fc
As for B2, the dissociation constant (Kd) is 1.5 nM.

B3: G04-Lib6-Pl2 (antibody, V domains shown)
VH: EVQLVQSGAEVKKPGASVKVSCKASGYSFTKSGIHWVRQAPGQGLEWMGWINPRTGNINYAQKLQGRGTMTTDPSTSTAYMELRSLRSDDTAVYYCARTHLGSSSSPPGYYYGMDVWGQGTTVTVSS
VL: ESALTQPASVSGSPGQSITISCTGTNIGAKAVSWYQQHPGKAPKLMIYAENKRPSGVSNRFSGSKSGNTASLTISGLQAEDEADYYCQAWDNRAILFGGGTKLTVL
notes: as for B2
B3: the Kd came out at 1.6 nM.

B4: G05-Lib3-Pl1 (antibody, V domains shown)
VH: EVQLVESGGGLVQPGGSLRLSCAASGFTFSDYSMSWVRQAPGKGLELVASISESGHDTYYPDSVKGRFTISRDNAKNSLYLQMNSLRAEDTAVYYCARGIAVAGTRAFDIWGQGTMVTVSS
VL: DIVMTQSPLSLPVTPGEPASISCRSSQSLLYSTGYNYLHWYLQKPGQSPQLLIYMGSYRASGVPDRFSGSGSGTDFTLKISRVEAEDVGVYYCMQALPTPPITFGGGTKVEIK
notes: as for B2
Consider B4, for which the Kd stood at 0.89 nM.

B5: iggrefmat 1-12 (antibody, V domains shown)
VH: QVQLVQSGAEVKKPGASVKVSCKVSGYPFSNYAIHWVRQAPGKGLEWMGGISPYTGKTIYAQKFQGRVTMTEDTSTDTAYMELSSLKSEDTAVYYCAFSRYYYDSSGYHGDAFDIWGQGTMVTVSS
VL: DIQMTQSPSSVSASVGDRVTITCRASQGISNHLAWYQQKPGKAPKLLIYDASNRATGVPSRFSGSGSGTDFTLTISSLQPEDFANYYCQQSFTIPSFGGGTKVEIK
notes: Tested as an antibody captured by anti-human IgG Fc; also called C02-Lib1_Pl1
B5: the Kd worked out at 1.5 nM.

B6: iggrefmat 3-4 (antibody, V domains shown)
VH: EVQLVQSGAEVKKPGASVKVSCKASGYTFSDHYISWVRQAPGQGLEWMGWMNPTSGHTNYAQKLQGRGTMTTDPSTSTAYMELRSLRSDDTAVYYCARVSGRWLPAVDGHYYYYYGMDVWGQGTTVTVSS
VL: ESALTQPASVSGSPGQSITISCTGTGSNIGAGYGVSWYQQHPGKAPKLMIYANINRPPGVSNRFSGSKSGNTASLTISGLQAEDEADYYCSSYTSSSWMFGGGTKLTVL
notes: Tested as an antibody captured by anti-human IgG Fc; also called D11-Lib4-Pl1
Consider B6, for which the Kd came to 2.6 nM.

B7: iggrefmat 3-11 (antibody, V domains shown)
VH: EVQLVQSGAEVKKPGASVKVSCKASGYTFATYPISWVRQAPGQGLEWMGGMNPTTGDTIYAQKLQGRGTMTTDPSTSTAYMELRSLRSDDTAVYYCARGDRAWFDPWGQGTLVTVSS
VL: ESALTQPASVSGSPGQSITISCTGTGSNIGAGYGVSWYQQHPGKAPKLMIYANINRPPGVSNRFSGSKSGNTASLTISGLQAEDEADYYCSSYTSSSWMFGGGTKLTVL
notes: Tested as an antibody captured by anti-human IgG Fc; also called H03-Lib6-Pl2
On to B7, for which the Kd turned out to be 0.92 nM.

B8: C03-Lib1-Pl1 (antibody, V domains shown)
VH: QVQLVQSGAEVKKPGASVKVSCKVSGYTFTDLPIHWVRQAPGKGLEWMGGINPHSGDAIYAQKFQGRVTMTEDTSTDTAYMELSSLKSEDTAVYYCTTVIAVAGSNDSRPCGRSYLCVLDYWGQGTLVTVSS
VL: DIQMTQSPSSVSASVGDRVTITCNASQGIGHSLAWYQQKPGKAPKLLIYGATSRATGVPSRFSGSGSGTDFTLTISSLQPEDFANYYCLQDYIYPFTFGGGTKVEIK
notes: as for B2
Take B8: the Kd came to 5.3 nM.

B9: iggrefmat 1-29 (antibody, V domains shown)
VH: QVQLVQSGAEVKKPGASVKVSCKVSRGTFSTYAIHWVRQAPGKGLEWMGGINAATGYTIYAQKFQGRVTMTEDTSTDTAYMELSSLKSEDTAVYYCVRSVGSIEYWGQGTLVTVSS
VL: DIQMTQSPSSVSASVGDRVTITCRASQGISNHLAWYQQKPGKAPKLLIYGASSRQSGVPSRFSGSGSGTDFTLTISSLQPEDFANYYCLHDRYPYTFGGGTKVEIK
notes: Tested as an antibody captured by anti-human IgG Fc; also called C01-Lib1-Pl1
As for B9, the dissociation constant Kd worked out at 6.1 nM.

B10: C08-Lib3-Pl1 (antibody, V domains shown)
VH: EVQLVESGGGLVQPGGSLRLSCAASGLPFSSYGMSWVRQAPGKGLELVASIGTSGTRTYYPDSVKGRFTISRDNAKNSLYLQMNSLRAEDTAVYYCARLGEGSGWSYFDYWGQGTLVTVSS
VL: DIVMTQSPLSLPVTPGEPASISCRSSQSLLHSTGYNYLHWYLQKPGQSPQLLIYSGSYRASGVPDRFSGSGSGTDFTLKISRVEAEDVGVYYCQQGYSTPHTFGGGTKVEIK
notes: as for B2
As for B10, the Kd was 0.41 nM.

B11: iggrefmat 6-16 (antibody, V domains shown)
VH: EVQLVESGGGLVQPGRSLRLSCAASEFSFSRFDMHWVRQAPGKGLEWVSAISSSGSYKDYADSVEGRFTISRDNAKNSLYLQMNSLRAEDTAVYYCAREAYGDYGKPFDYWGQGTLVTVSS
VL: DIQMTQSPSSLSASVGDRVTITCRASQSISRNLAWYQQKPGKAPKLLIYAGSTLQRGVPSRFSGSGSGTDFTLTISSLQPEDVATYYCLQANMYPLTFGGGTKV
notes: as for B2
As to B11, the Kd was 0.38 nM.

B12: iggrefmat 2-16 (antibody, V domains shown)
VH: QVQLVESGGGLVQPGGSLRLSCAASGLTFSGSAMSWVRQAPGKGLELVASITGSGTRTYYPDSVKGRFTISRDNAKNSLYLQMNSLRAEDTAVYYCARGLHAFDIWGQGTMVTVSS
VL: DIVMTQSPLSLPVTPGEPASISCRSSQSLLSSYGYHNLHWYLQKPGQSPQLLIYMGYNRASGVPDRFSGSGSGTDFTLKISRVEAEDVGVYYCMQGMHLPITFGGGTKVEIK
notes: Tested as an antibody captured by anti-human IgG Fc; also called C07-Lib3-Pl1
Regarding B12, the Kd stood at 1.5 nM.

B13: B07-Lib3-Pl1 (antibody, V domains shown)
VH: EVQLVESGGGLVQPGGSLRLSCAASGFTLDNYVMSWVRQAPGKGLELVASISGSSADTYYPDSVKGRFTISRDNAKNSLYLQMNSLRAEDTAVYYCAKGIAAGYGMDVWGQGTTVTVSS
VL: DIVMTQSPLSLPVTPGEPASISCRSSQSLLHSSGYTYLHWYLQKPGQSPQLLIYATSYRAPGVPDRFSGSGSGTDFTLKISRVEAEDVGVYYCMQATHPYTFGGGTKVEIK
notes: as for B2
As to B13, the Kd was 5 nM.

B14: iggrefmat 2-12 (antibody, V domains shown)
VH: EVQLVESGGGLVQPGGSLRLSCAASGFSFGTYSMSWVRQAPGKGLELVASIDTAGTPYYPDSVKGRFTISRDNAKNSLYLQMNSLRAEDTAVYYCARSYSGYDPYDAFDIWGQGTMVTVSS
VL: DIVMTQSPLSLPVTPGEPASISCRSSRSLVHGSGDNYLHWYLQKPGQSPQLLIYDASNRFSGVPDRFSGSGSGTDFTLKISRVEAEDVGVYYCAQTLQIPLTFGGGTKVEIK
notes: Tested as an antibody captured by anti-human IgG Fc; also called E08-Lib3-Pl1
For B14, the dissociation constant (Kd) turned out to be 5.6 nM.

B15: iggrefmat 3-13 (antibody, V domains shown)
VH: EVQLVQSGAEVKKPGASVKVSCKASGFPFSTSAISWVRQAPGQGLEWMGWMDPATGQTNYAQKLQGRGTMTTDPSTSTAYMELRSLRSDDTAVYYCARALRYCSGGRCQGFHGMDVWGQGTTVTVSS
VL: ESALTQPASVSGSPGQSITISCTGTNIAAKSVSWYQQHPGKAPKLMIYANINRPPGVSNRFSGSKSGNTASLTISGLQAEDEADYYCSSYTSSSWMFGGGTKLTVL
notes: Tested as an antibody captured by anti-human IgG Fc; also called C11-Lib4-Pl1
Turning to B15, the Kd stood at 2.5 nM.
